Target: seed (assembled NM protein, preformed fibers used to seed fiber elongation in Example 10) (Saccharomyces cerevisiae) (UniProt P05453)
Assay: seeded fiber elongation, sedimentation and wavelength shift assays, Lineweaver-Burk plot

Chain of seed (assembled NM protein, preformed fibers used to seed fiber elongation in Example 10) (Saccharomyces cerevisiae) (P05453 1-253): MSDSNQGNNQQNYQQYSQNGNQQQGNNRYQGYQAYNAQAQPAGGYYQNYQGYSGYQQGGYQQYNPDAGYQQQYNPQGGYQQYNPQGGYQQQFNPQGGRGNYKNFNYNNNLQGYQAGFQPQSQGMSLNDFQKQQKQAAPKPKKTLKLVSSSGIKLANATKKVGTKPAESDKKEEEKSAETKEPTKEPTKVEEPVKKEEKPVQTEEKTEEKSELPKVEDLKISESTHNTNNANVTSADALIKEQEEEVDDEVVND

## NM^T158C-acrylodan (from UniProt P05453 1-253) (other; other documents disagree on this pair)
  Km: 0.12 µM
  Vmax (maximal rate of conformational conversion): 0.001 µmol/s
  kconf (rate constant of conformational conversion): 0.005 s⁻¹
  kconf/Km (conformational conversion efficiency): 42000 M⁻¹ s⁻¹
